Data on two molecules can be found in US20170112928A1.

For the test, the target named is hTEM8-AP (human) (UniProt Q9H6X2). Nature of the test: Biocore (SPR) affinity measurement of anti-TEM8 Fab.
hTEM8-AP (human), sequence (Q9H6X2 33-321): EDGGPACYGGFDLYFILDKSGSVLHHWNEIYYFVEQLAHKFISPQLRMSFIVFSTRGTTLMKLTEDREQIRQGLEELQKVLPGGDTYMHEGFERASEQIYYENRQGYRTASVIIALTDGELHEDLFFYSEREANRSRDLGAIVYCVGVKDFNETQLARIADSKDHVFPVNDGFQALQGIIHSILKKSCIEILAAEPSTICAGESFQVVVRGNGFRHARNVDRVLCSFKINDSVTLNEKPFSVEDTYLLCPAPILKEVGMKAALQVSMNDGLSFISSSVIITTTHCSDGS

“M830 anti-TEM8 fragment antigen-binding (Fab)”: the Kd – broadly, the constant that tells how readily two partners part at equilibrium – came out at 1.57 nM; the koff – broadly, the rate constant with which the complex falls apart – amounted to 0.000953 s⁻¹; the kon (in general, the second-order rate constant of association) worked out at 607000 M⁻¹ s⁻¹.

B1: M825 anti-TEM8 fragment antigen-binding (Fab) (Fab, V domains shown)
VH: QVQLVQSGAEVKKPGTSVKVSCKVPGYTFSSYAISWVRQAPGQGLEWMGGIIPIFGTTNYAQKFQGRVTITGEESTSTVYMELSSLRSEDTAVYYCARDTDYMFDYWGQGTLVTVSS
VL: SSELTQDPVVSVALGETVSITCQGDNLRDFYASWYQQKPGQAPLLVMYGKNRRPSGIPDRFSGSTSGNTLSLTITGAQAEDEADYYCSSRDNSKHVVFGGGTKVTVL
For the molecule B1, the dissociation constant (Kd) was 0.0591 nM, the koff stood at 0.00018 s⁻¹ and the kon worked out at 3.05e+06 M⁻¹ s⁻¹.
